Reference: publication PMC9966682, “Lactose and Galactose Promote the Crystallization of Human Galectin-10” (Molecules, 2023)

Target: the molecule itself
Assay: SEC; size-exclusion HPLC, Spherogel-TSK-2000SW; Gal-10 diluted to 100 μM, incubated 2 h at 4 °C; PBS–azide buffer (6.7 mM KH2PO4, 150 mM NaCl, 14 mM β-mercaptoethanol, 0.02% NaN3), pH 7.4; monomer–dimer equilibrium

B1: Recombinant human Charcot–Leyden crystal (CLC) protein (natural protein, UniProt Q05315 1-142, looked up)
chain: MSLLPVPYTEAASLSTGSTVTIKGRPLACFLNEPYLQVDFHTEMKEESDIVFHFQVCFGRRVVMNSREYGAWKQQVESKNMPFQDGQEFELSISVLPDKYQVMVNGQSSYTFDHRIKPEAVKMVQVWRDISLTKFNVSYLKR
notes: Galectin-10 (Charcot-Leyden crystal protein), human; the introduction gives 142 amino-acid residues; also called Galectin-10; Gal-10; source: E. coli, bought: Cloud-Clone Corp., purified with Ni-nitrilotriacetic acid resin
stoichiometry N: 2
